Reference: patent US20200231674A1 (published 2020)

Molecular target: T1, human CD8 alpha (on transfected HEK293T cells) (human, UniProt P01732 22-235)
T1 construct: whole, on cells
Experiment: FACS on HEK293-T cells transfected with human CD8a (Example 2, FIG. 4)
Procedure: The binding characteristics of various VHHs (as described in Example 1) were tested by flow cytometry. HEK293-T cells were transfected with a human CD8a expression plasmid and stained with the His-tagged VHHs at […], followed by staining with an anti-His Fitc conjugated antibody. Binding was measured by detecting cellular fluorescence via flow cytometry.

T1 sequence (P01732 22-235): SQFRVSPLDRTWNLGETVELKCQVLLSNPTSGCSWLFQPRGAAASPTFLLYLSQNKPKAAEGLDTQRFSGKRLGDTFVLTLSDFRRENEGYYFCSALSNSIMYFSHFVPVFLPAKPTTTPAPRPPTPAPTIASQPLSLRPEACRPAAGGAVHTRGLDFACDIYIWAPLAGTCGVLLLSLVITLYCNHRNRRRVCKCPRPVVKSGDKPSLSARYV

B1: 2CDA 74 (VHH)
VHH: QVQLQESGGGLVQAGGSLRLSCAVSGFTFDNYAIGWFRQAPGKEREGVSCISRSDGSTYYADSVRGRFTISSDNAKNTVYLQMNSLKPEDTAVYYCAAETSADSGEFRFGWVLKPSLYDYWGQGTQVTVSS
notes: entry carries AAA-HA-His6 tail (pMECS format); free cysteine in CDR2 at position 50
B1: binds.
